Measured values taken from publication PMC7461574.

Biological target: non-glycosylated wild-type PAI-1 (PAI-1-wt) (human) (UniProt P05121)
Sequence of UniProt P05121 (P05121 24-402): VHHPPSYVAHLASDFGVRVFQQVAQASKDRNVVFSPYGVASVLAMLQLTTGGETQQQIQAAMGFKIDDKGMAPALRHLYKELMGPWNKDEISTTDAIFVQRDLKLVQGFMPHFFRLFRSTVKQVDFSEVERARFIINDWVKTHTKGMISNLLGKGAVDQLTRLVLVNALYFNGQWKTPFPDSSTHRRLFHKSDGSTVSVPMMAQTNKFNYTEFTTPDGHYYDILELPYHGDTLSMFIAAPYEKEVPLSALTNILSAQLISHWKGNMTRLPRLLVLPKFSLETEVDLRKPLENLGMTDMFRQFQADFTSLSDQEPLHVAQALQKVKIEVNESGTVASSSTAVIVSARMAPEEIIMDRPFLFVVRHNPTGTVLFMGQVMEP

- IC50 of inhibition of PAI-1-wt activity, chromogenic plasminogen-coupled assay with tPA (residual tPA activity; pair blocked: PAI-1/tPA), Nb93 1 to 512 nM: 202 nM
- maximum inhibition of PAI-1-wt activity, chromogenic plasminogen-coupled assay with tPA (pair blocked: PAI-1/tPA), Nb93 1 to 512 nM: 55%
B1: VHH-s-a93 (Nb93) (VHH)
VHH: QVQLVESGGGLVQPGGSLRLSCAASGFSLDNYAIGWFRQAPGKEREGVSCISSSDGSTYYTDSVEGRFTISRDNAKNTVYLQMNSLKPDDTAVYYCAADYGSSWCTFNGMDYWGQGTQVTVSS
